Results reported in US20060204507A1 (LUDWIG INSTITUTE FOR CANCER RESEARCH, published 2006).

Biological target: T1, HLA-Cw3 on target cells
T1 construct: also called HLA-Cw*0304
Test: inferred from FW/92 T cell recognition of peptide-pulsed target cells with lactacystin (ELISPOT)

binding result: binds
Binder: LAMPFATPM [Nonapeptide consisting of amino acids 13-21 of SEQ ID NO: 4]
